Assay results taken from the supplement of paper PMC9732359.
± gives the uncertainty stated by the source.

Assay: protein stability index of a GFP-peptide fusion (yeast GPS) (PSI 1-4); higher = more stable; sorted into four equal gates, so the index is relative within each strain
In short: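 Plasmids in a pooled yeast library fused tiled 17-residue yeast protein peptides downstream of GFP and also expressed Cherry. Mid-log cultures grown without leucine were sorted into four equal gates by GFP/Cherry fluorescence ratio. Each gate's plasmids were PCR-amplified and Illumina-sequenced, and reads were matched to strains by barcodes. The protein stability index is derived by multiplying each gate's read frequency by its gate number and summing the results.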

In the case of TSRIDEEKPGLIITRKA [SMC4], the protein stability index (doa10∆) is reported as 2.91 ± 0.063, the protein stability index (pdr5∆) is reported as 3.07 ± 0.052 and the protein stability index (san1∆) is reported as 3.07 ± 0.044. For the same sequence, the protein stability index (ubr1∆) was 3 ± 0.057.
For EKLSSEIENLDKELRKT [YIL149C/MLP2], the protein stability index (doa10∆) was 3.12 ± 0.11, the protein stability index (pdr5∆) was 3.21 ± 0.12 and the protein stability index (san1∆) was 3.12 ± 0.069. It also gave a protein stability index (ubr1∆) of 3 ± 0.11.
In the case of DNCCDFKVRTNLNDKFG [MED1], the protein stability index (doa10∆) is reported as 2.74 ± 0.19, the protein stability index (pdr5∆) is reported as 3.22 ± 0.2 and the protein stability index (san1∆) is reported as 2.79 ± 0.15. The protein stability index (ubr1∆) was 3.08 ± 0.092.
In the case of MERLDGDYNNTVYSSEQ [SMC3], the protein stability index (doa10∆) is reported as 2.94 ± 0.11, the protein stability index (pdr5∆) is reported as 3.18 ± 0.12 and the protein stability index (san1∆) is reported as 3.25 ± 0.071. It also gave a protein stability index (ubr1∆) of 3.16 ± 0.042.
ILHTKESSNEAKKTIQN [SIR4] showed a protein stability index (doa10∆) of 2.74 ± 0.056, a protein stability index (pdr5∆) of 2.21 ± 0.058 and a protein stability index (san1∆) of 2.73 ± 0.069. It also gave a protein stability index (ubr1∆) of 2.73 ± 0.054.
For ILPDSLNLDSLLVDQKQ [SMD1], the protein stability index (doa10∆) was 3.29 ± 0.098, the protein stability index (pdr5∆) was 3.01 ± 0.085 and the protein stability index (san1∆) was 3.21 ± 0.074. The protein stability index (ubr1∆) was 3.09 ± 0.06.
LKNKYESYDAALSLHRE [FAS2] showed a protein stability index (doa10∆) of 3.181 ± 0.019, a protein stability index (pdr5∆) of 3.134 ± 0.016 and a protein stability index (san1∆) of 3.083 ± 0.014. For the same sequence, the protein stability index (ubr1∆) was 3.034 ± 0.014.
Work on SKFTKIPPTFDKGAVGP [MED4] yielded a protein stability index (doa10∆) of 3.17 ± 0.072, a protein stability index (pdr5∆) of 3.29 ± 0.079 and a protein stability index (san1∆) of 3.33 ± 0.076. It also gave a protein stability index (ubr1∆) of 3.08 ± 0.11.
ITISIHGKPTKGSSLAS [SSN8] showed a protein stability index (doa10∆) of 2.24 ± 0.17, a protein stability index (pdr5∆) of 2.39 ± 0.086 and a protein stability index (san1∆) of 2.43 ± 0.079. For the same sequence, the protein stability index (ubr1∆) was 2.58 ± 0.041.
For YLKFIPLKRAIWLIKCC [SRB8], the protein stability index (doa10∆) was 2.51 ± 0.095, the protein stability index (pdr5∆) was 1.86 ± 0.069 and the protein stability index (san1∆) was 2.19 ± 0.16. It also gave a protein stability index (ubr1∆) of 2.16 ± 0.057.
LCDIDEVSDFDEMYELT [DIB1] showed a protein stability index (doa10∆) of 2.43 ± 0.19, a protein stability index (pdr5∆) of 3.08 ± 0.1 and a protein stability index (san1∆) of 2.65 ± 0.12. It also gave a protein stability index (ubr1∆) of 1.9 ± 0.16.
HLVSNELEQLSSEALEA [RPL10] showed a protein stability index (doa10∆) of 1.21 ± 0.053, a protein stability index (pdr5∆) of 1.39 ± 0.042 and a protein stability index (san1∆) of 1.3 ± 0.14. It also gave a protein stability index (ubr1∆) of 1.39 ± 0.031.
Sequence YDPQRDKRFSGSLKLPN [RPL1A] has a protein stability index (doa10∆) of 3.09 ± 0.065, a protein stability index (pdr5∆) of 3.33 ± 0.068 and a protein stability index (san1∆) of 3.02 ± 0.052. The protein stability index (ubr1∆) was 3.08 ± 0.048.
TPNVNVLVLHGDKDTRA [ISW2] showed a protein stability index (doa10∆) of 2.63 ± 0.05, a protein stability index (pdr5∆) of 2.36 ± 0.05 and a protein stability index (san1∆) of 2.32 ± 0.08. It also gave a protein stability index (ubr1∆) of 2.81 ± 0.05.
With EREQCRAGGAAASLIMP [PRE7] the protein stability index (doa10∆) was 3.02 ± 0.24, the protein stability index (pdr5∆) was 2.92 ± 0.19 and the protein stability index (san1∆) was 3.43 ± 0.18. The protein stability index (ubr1∆) was 2.89 ± 0.1.
Sequence DMGMQQELCYPDENHDN [BRN1] has a protein stability index (doa10∆) of 3.22 ± 0.073, a protein stability index (pdr5∆) of 3.28 ± 0.06 and a protein stability index (san1∆) of 2.99 ± 0.059. For the same sequence, the protein stability index (ubr1∆) was 3.33 ± 0.055.
Work on FLIHSGQPVNDFIDTAT [RPS3] yielded a protein stability index (doa10∆) of 2.71 ± 0.053, a protein stability index (pdr5∆) of 3 ± 0.056 and a protein stability index (san1∆) of 3.09 ± 0.05. The protein stability index (ubr1∆) was 3.04 ± 0.073.
For DRELSVRNACKRLIAHD [YCG1], the protein stability index (doa10∆) was 2.59 ± 0.097, the protein stability index (pdr5∆) was 2.77 ± 0.27 and the protein stability index (san1∆) was 2.49 ± 0.26. It also gave a protein stability index (ubr1∆) of 2.67 ± 0.18.
For SGEEKGKKVSGFKDEVL [RPS1B], the protein stability index (doa10∆) was 3.4 ± 0.11, the protein stability index (pdr5∆) was 3.61 ± 0.14 and the protein stability index (san1∆) was 3.48 ± 0.11. For the same sequence, the protein stability index (ubr1∆) was 3.46 ± 0.083.
With TAAANTEKLSNGFSFTK [YOR098C/NUP1] the protein stability index (doa10∆) was 2.81 ± 0.079, the protein stability index (pdr5∆) was 2.48 ± 0.057 and the protein stability index (san1∆) was 2.56 ± 0.065. It also gave a protein stability index (ubr1∆) of 2.46 ± 0.044.
In the case of EGNVPQTLAPVPYETFI [RPL21A], the protein stability index (doa10∆) is reported as 3.06 ± 0.066, the protein stability index (pdr5∆) is reported as 2.74 ± 0.056 and the protein stability index (san1∆) is reported as 3.08 ± 0.052. For the same sequence, the protein stability index (ubr1∆) was 2.78 ± 0.056.
Sequence LKQPPFQITLSSDDLQN [SSN8] has a protein stability index (doa10∆) of 2.23 ± 0.059, a protein stability index (pdr5∆) of 2.31 ± 0.077 and a protein stability index (san1∆) of 2.34 ± 0.064. For the same sequence, the protein stability index (ubr1∆) was 2.35 ± 0.085.
FQELDSKKQRNNGSKDH [RPN9] gave a protein stability index (doa10∆) of 3.09 ± 0.17, a protein stability index (pdr5∆) of 2.64 ± 0.19 and a protein stability index (san1∆) of 2.67 ± 0.15. The protein stability index (ubr1∆) was 2.37 ± 0.16.
NFLDAPGHVNFMDETAV [SNU114] showed a protein stability index (doa10∆) of 3.26 ± 0.16, a protein stability index (pdr5∆) of 3.28 ± 0.11 and a protein stability index (san1∆) of 3.29 ± 0.068. The protein stability index (ubr1∆) was 3.08 ± 0.11.
Sequence SFIINFISNLPNVSDKY [NUT1] has a protein stability index (doa10∆) of 2.28 ± 0.08, a protein stability index (pdr5∆) of 1.91 ± 0.07 and a protein stability index (san1∆) of 2.06 ± 0.15. It also gave a protein stability index (ubr1∆) of 1.95 ± 0.057.
TLETIEIHPITFPPEVL [RRP43] gave a protein stability index (doa10∆) of 1.9 ± 0.045, a protein stability index (pdr5∆) of 2.25 ± 0.045 and a protein stability index (san1∆) of 2.3 ± 0.06. The protein stability index (ubr1∆) was 2.01 ± 0.035.
